From PMC5036048 (Scientific Reports, 2016)

Key:
[1] = target: T1, N43 (gp41 NHR peptide, Val539~Leu581) (HIV-1 (numbering of HIV-1 HXB2 gp160), UniProt P04578 539-581); assay: cell-based or functional assay
[2] = target: T1, N43 (gp41 NHR peptide, Val539~Leu581); assay: cell-based or functional assay; remark: listed apart in the source

T1 sequence (P04578 539-581): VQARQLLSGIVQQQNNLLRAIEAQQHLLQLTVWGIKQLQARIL

B1: CP-IDL (peptide)
peptide: WMEWDREINNYTSLIHSLIEESQNQQIDL
IC50 of inhibition of HIV-1 pseudovirus B1206.W6P.ENV.A1 (subtype A) [1]: 74.5 nM
IC50 of inhibition of HIV-1 pseudovirus BG505.W6M.ENV.C2 (subtype A) [1]: 8.61 nM
IC50 of inhibition of HIV-1 pseudovirus BJ412.W6M.ENV.S3 (subtype C) [1]: 1.21 nM
IC50 of inhibition of HIV-1 pseudovirus MJ412.W0M.ENV.B1 (subtype C) [1]: 2.24 nM
IC50 of inhibition of HIV-1 pseudovirus SF162.LS (subtype B, R5, Tier 1) [1]: 1.51 nM
IC50 of inhibition of HIV-1 pseudovirus ZM109F.PB4 (subtype C, R5) [1]: 2.93 nM
IC50 of inhibition of HIV-1 pseudovirus pCH119 env (subtype BC, R5, Tier 2) [1]: 5.79 nM
IC50 of inhibition of infection, T20-resistant strain N42T, N43K [2]: 382 nM
IC50 of inhibition of infection, T2635-resistant strain K154Q [2]: 9.79 nM
IC50 of inhibition of infection, T2635-resistant strain N113E [2]: 7.99 nM
IC50 of inhibition of infection, T2635-resistant strain N126K [2]: 46.4 nM
IC50 of inhibition of infection, T2635-resistant strain Q66R, N126K [2]: 302 nM
IC50 of inhibition of infection, panel of T20-resistant strains: WT [2]: 8.67 nM
IC50 of inhibition of infection, panel of T2635-resistant strains: WT [2]: 10.8 nM
